Experimental data: patent US20260274980A1 (BIOARCTIC, published 2026)
Changes are numbered by the printed parent chain.

T1: truncated cTfR1 of SEQ ID NO:87 (cynomolgus, UniProt Q5RDH6 122-760 (Pongo abelii entry), limits assumed)
T1 construct: Printed only as 'truncated cTfR1'; amine-coupled to a CM5 chip for SPR; also called cynomolgus TfR1
T1 chain: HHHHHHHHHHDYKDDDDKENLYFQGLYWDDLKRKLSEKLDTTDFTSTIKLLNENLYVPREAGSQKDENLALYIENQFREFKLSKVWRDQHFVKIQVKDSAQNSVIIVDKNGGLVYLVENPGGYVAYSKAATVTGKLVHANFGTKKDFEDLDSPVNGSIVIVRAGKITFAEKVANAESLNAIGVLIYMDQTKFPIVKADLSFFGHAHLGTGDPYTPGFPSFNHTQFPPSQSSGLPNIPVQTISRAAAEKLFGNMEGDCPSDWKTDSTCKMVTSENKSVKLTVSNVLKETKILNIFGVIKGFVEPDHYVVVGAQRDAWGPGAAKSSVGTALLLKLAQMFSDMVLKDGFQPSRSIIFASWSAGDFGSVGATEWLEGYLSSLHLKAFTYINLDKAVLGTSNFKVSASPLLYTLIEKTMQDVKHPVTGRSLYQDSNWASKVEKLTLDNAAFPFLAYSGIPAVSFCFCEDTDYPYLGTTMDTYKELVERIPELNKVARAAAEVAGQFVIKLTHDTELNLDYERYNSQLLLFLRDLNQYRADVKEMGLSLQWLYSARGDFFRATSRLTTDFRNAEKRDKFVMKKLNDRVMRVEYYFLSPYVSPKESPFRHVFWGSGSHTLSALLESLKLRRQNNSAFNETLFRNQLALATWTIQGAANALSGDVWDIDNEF

B1: h26D3-Fab (Fab, V domains shown)
VH: EVQLVQSGAEVKKPGSSVKVSCKASGYIFTDYNMDWVRQAPGQGLEWIGDINPDYDTTSYNEKFKGRATLTVDKSTSTAYMELSSLRSEDTAVYYCARGGYSGSSYYHPMDYWGQGTLVTVSS
VL: DIQMTQSPSSVSASVGDRVTITCKSSQSLLYSTNQKNYLAWYQQKPGKAPKLLIYWASTRESGVPSRFSGSGSGTDFTLTISSLQPEDFATYYCQQYFIYPRTFGQGTKVEIK
notes: His-tagged Fab from ExpiCHO; also called humanized 26D3 Fab
B2: bispecific binding molecule (format of WO2022/258841) comprising h26D3 LC5 scFv (bispecific antibody, V domains shown)
VH: B1 VH
VL: B1 VL with Y97A
B3: bispecific binding molecule (format of WO2022/258841) comprising h26D3 LC1 scFv (bispecific antibody, V domains shown)
VH: B1 VH
VL: B1 VL with Y31A
B4: bispecific binding molecule (format of WO2022/258841) comprising h26D3 HC6 scFv (bispecific antibody, V domains shown)
VH: B1 VH with Y55A
VL: B1 VL
B5: 2A-3 #8 (bispecific antibody, human IgG1, kappa)
heavy: not shown
chain: DIVMTQAPLSLPVSLGDQASISCRSSQSIVHSNGNTYLEWYLQKPGQSPKLLIYKVSNRFSGVPDRFSGSGSGTDFTLKISRVEAEDLGIYYCFQGSHVPPTFGGGTKLEIKRTVAAPSVFIFPPSDEQLKSGTASVVCLLNNFYPREAKVQWKVDNALQSGNSQESVTEQDSKDSTYSLSSTLTLSKADYEKHKVYACEVTHQGLSSPVTKSFNRGECGGGGSDIQMTQSPSSVSASVGDRVTITCKSSQSLLYSTNQKNYLAWYQQKPGKAPKLLIYWASTRESGVPSRFSGSGSGTDFTLTISSLQPEDFATYYCQQYFIYPRTFGQGTKVEIKGGGGSGGGGSGGGGSEVQLVQSGAEVKKPGSSVKVSCKASGYIFTDYNMDWVRQAPGQGLEWIGDINPDADTTSYNEKFKGRATLTVDKSTSTAYMELSSLRSEDTAVYYCARGGYSGSSYYHPMDYWGQGTLVTVSSGGGGSGGGGSGGGGSGGGGSDIVMTQAPLSLPVSLGDQASISCRSSQSIVHSNGNTYLEWYLQKPGQSPKLLIYKVSNRFSGVPDRFSGSGSGTDFTLKISRVEAEDLGIYYCFQGSHVPPTFGGGTKLEIKRTVAAPSVFIFPPSDEQLKSGTASVVCLLNNFYPREAKVQWKVDNALQSGNSQESVTEQDSKDSTYSLSSTLTLSKADYEKHKVYACEVTHQGLSSPVTKSFNRGEC
notes: also called Gen 2A construct #8; VL first
B6: 2A-3 #5 (bispecific antibody, human IgG1, kappa)
heavy: not shown
chain: DIVMTQAPLSLPVSLGDQASISCRSSQSIVHSNGNTYLEWYLQKPGQSPKLLIYKVSNRFSGVPDRFSGSGSGTDFTLKISRVEAEDLGIYYCFQGSHVPPTFGGGTKLEIKRTVAAPSVFIFPPSDEQLKSGTASVVCLLNNFYPREAKVQWKVDNALQSGNSQESVTEQDSKDSTYSLSSTLTLSKADYEKHKVYACEVTHQGLSSPVTKSFNRGECGGGGSGGGGSEVQLVQSGAEVKKPGSSVKVSCKASGYIFTDYNMDWVRQAPGQGLEWIGDINPDADTTSYNEKFKGRATLTVDKSTSTAYMELSSLRSEDTAVYYCARGGYSGSSYYHPMDYWGQGTLVTVSSGGGGSGGGGSGGGGSDIQMTQSPSSVSASVGDRVTITCKSSQSLLYSTNQKNYLAWYQQKPGKAPKLLIYWASTRESGVPSRFSGSGSGTDFTLTISSLQPEDFATYYCQQYFIYPRTFGQGTKVEIKGGGGSGGGGSGGGGSGGGGSGGGGSDIVMTQAPLSLPVSLGDQASISCRSSQSIVHSNGNTYLEWYLQKPGQSPKLLIYKVSNRFSGVPDRFSGSGSGTDFTLKISRVEAEDLGIYYCFQGSHVPPTFGGGTKLEIKRTVAAPSVFIFPPSDEQLKSGTASVVCLLNNFYPREAKVQWKVDNALQSGNSQESVTEQDSKDSTYSLSSTLTLSKADYEKHKVYACEVTHQGLSSPVTKSFNRGEC
notes: also called Gen 2A construct #5; VH first
B7: 2A-3 #6 (bispecific antibody, human IgG1, kappa)
heavy: not shown
chain: DIVMTQAPLSLPVSLGDQASISCRSSQSIVHSNGNTYLEWYLQKPGQSPKLLIYKVSNRFSGVPDRFSGSGSGTDFTLKISRVEAEDLGIYYCFQGSHVPPTFGGGTKLEIKRTVAAPSVFIFPPSDEQLKSGTASVVCLLNNFYPREAKVQWKVDNALQSGNSQESVTEQDSKDSTYSLSSTLTLSKADYEKHKVYACEVTHQGLSSPVTKSFNRGECGGGGSGGGGSGGGGSEVQLVQSGAEVKKPGSSVKVSCKASGYIFTDYNMDWVRQAPGQGLEWIGDINPDADTTSYNEKFKGRATLTVDKSTSTAYMELSSLRSEDTAVYYCARGGYSGSSYYHPMDYWGQGTLVTVSSGGGGSGGGGSGGGGSDIQMTQSPSSVSASVGDRVTITCKSSQSLLYSTNQKNYLAWYQQKPGKAPKLLIYWASTRESGVPSRFSGSGSGTDFTLTISSLQPEDFATYYCQQYFIYPRTFGQGTKVEIKGGGGSGGGGSGGGGSGGGGSGGGGSDIVMTQAPLSLPVSLGDQASISCRSSQSIVHSNGNTYLEWYLQKPGQSPKLLIYKVSNRFSGVPDRFSGSGSGTDFTLKISRVEAEDLGIYYCFQGSHVPPTFGGGTKLEIKRTVAAPSVFIFPPSDEQLKSGTASVVCLLNNFYPREAKVQWKVDNALQSGNSQESVTEQDSKDSTYSLSSTLTLSKADYEKHKVYACEVTHQGLSSPVTKSFNRGEC
notes: also called Gen 2A construct #6; VH first
B8: mAb158-Gen2D-h26D3 VH first (bispecific antibody, human IgG1, kappa)
heavy 1: not shown
heavy 2: not shown
light: DIVMTQAPLSLPVSLGDQASISCRSSQSIVHSNGNTYLEWYLQKPGQSPKLLIYKVSNRFSGVPDRFSGSGSGTDFTLKISRVEAEDLGIYYCFQGSHVPPTFGGGTKLEIKRTVAAPSVFIFPPSDEQLKSGTASVVCLLNNFYPREAKVQWKVDNALQSGNSQESVTEQDSKDSTYSLSSTLTLSKADYEKHKVYACEVTHQGLSSPVTKSFNRGEC
notes: Knob-into-hole antibody; also called Gen 2D construct, VH first
B9: mAb158-Gen2D-h26D3 VL first (bispecific antibody, human IgG1, kappa)
heavy 1: not shown
heavy 2: not shown
light: B8 light
notes: Knob-into-hole antibody; also called Gen 2D construct, VL first
B10: 2A-3 #3 (bispecific antibody, human IgG1, kappa)
heavy: not shown
chain: DIVMTQAPLSLPVSLGDQASISCRSSQSIVHSNGNTYLEWYLQKPGQSPKLLIYKVSNRFSGVPDRFSGSGSGTDFTLKISRVEAEDLGIYYCFQGSHVPPTFGGGTKLEIKRTVAAPSVFIFPPSDEQLKSGTASVVCLLNNFYPREAKVQWKVDNALQSGNSQESVTEQDSKDSTYSLSSTLTLSKADYEKHKVYACEVTHQGLSSPVTKSFNRGECGGGGSGGGGSGGGGSEVQLVQSGAEVKKPGSSVKVSCKASGYIFTDYNMDWVRQAPGQGLEWIGDINPDADTTSYNEKFKGRATLTVDKSTSTAYMELSSLRSEDTAVYYCARGGYSGSSYYHPMDYWGQGTLVTVSSGGGGSGGGGSGGGGSDIQMTQSPSSVSASVGDRVTITCKSSQSLLYSTNQKNYLAWYQQKPGKAPKLLIYWASTRESGVPSRFSGSGSGTDFTLTISSLQPEDFATYYCQQYFIYPRTFGQGTKVEIKGGGGSGGGGSGGGGSGGGGSDIVMTQAPLSLPVSLGDQASISCRSSQSIVHSNGNTYLEWYLQKPGQSPKLLIYKVSNRFSGVPDRFSGSGSGTDFTLKISRVEAEDLGIYYCFQGSHVPPTFGGGTKLEIKRTVAAPSVFIFPPSDEQLKSGTASVVCLLNNFYPREAKVQWKVDNALQSGNSQESVTEQDSKDSTYSLSSTLTLSKADYEKHKVYACEVTHQGLSSPVTKSFNRGEC
notes: also called Gen 2A construct #3; VH first

How the values were obtained:
[1] = biological target: T2, cynomolgus TfR1 (recombinant, construct not stated) (cynomolgus, UniProt H9EXL1 90-760 (rhesus entry)); assay: indirect ELISA of Fabs as for hTfR1, on cTfR1 (coating construct not stated), A450 [upper right panel cTfR1]
T2 construct: also called cTfR1; cynoTfR

[2] = biological target: T3, truncated hTfR1 of SEQ ID NO:86 (human, UniProt P02786 122-760); assay: SPR, hTfR1 amine-coupled, scFv in bispecific format injected
T3 construct: Given only as 'truncated hTfR1'; amine-coupled to a CM5 chip for SPR; also called human TfR1

[3] = biological target: T4, human transferrin receptor 1 (hTfR1) on cell surfaces (human, UniProt P02786 1-760); assay: flow cytometry, Ramos cells
T4 construct: Endogenous receptor on hCMEC/D3, THP-1, K562 and Ramos cells; also called CD71; endogenous hTfR1
T4 sequence (P02786 whole entry): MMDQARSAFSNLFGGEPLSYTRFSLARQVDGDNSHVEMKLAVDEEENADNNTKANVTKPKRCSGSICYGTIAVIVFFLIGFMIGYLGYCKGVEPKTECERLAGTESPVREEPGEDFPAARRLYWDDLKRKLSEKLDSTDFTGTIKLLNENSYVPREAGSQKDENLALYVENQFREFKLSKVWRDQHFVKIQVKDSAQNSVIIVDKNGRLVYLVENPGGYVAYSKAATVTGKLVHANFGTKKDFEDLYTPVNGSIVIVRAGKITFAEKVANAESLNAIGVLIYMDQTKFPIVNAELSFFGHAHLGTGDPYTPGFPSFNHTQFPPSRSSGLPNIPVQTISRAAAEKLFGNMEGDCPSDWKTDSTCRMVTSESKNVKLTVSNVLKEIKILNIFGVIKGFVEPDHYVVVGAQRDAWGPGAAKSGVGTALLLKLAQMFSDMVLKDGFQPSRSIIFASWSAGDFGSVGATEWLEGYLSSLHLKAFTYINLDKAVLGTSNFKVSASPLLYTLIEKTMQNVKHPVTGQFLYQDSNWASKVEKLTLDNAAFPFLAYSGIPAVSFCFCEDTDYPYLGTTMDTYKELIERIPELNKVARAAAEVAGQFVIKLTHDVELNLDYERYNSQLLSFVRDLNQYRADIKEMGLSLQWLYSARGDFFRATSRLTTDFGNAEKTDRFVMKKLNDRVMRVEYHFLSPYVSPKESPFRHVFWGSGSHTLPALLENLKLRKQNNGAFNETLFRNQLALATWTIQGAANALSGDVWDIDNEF
Experimental: Binding to hTfR1 on cells was measured on the immortalized human B lymphocyte cell line Ramos (Sigma, cat: 85030802). This cell line is known for expressing high levels of hTfR1 on the cell surface. Fcγ receptors were blocked using Fc receptor blocker (Innovex biosciences, #NB309-4X-40) for 30 min at 4° C., after which the cells were washed in PBS. The cells were seeded in a 96 well V bottom plate (#249570, Thermo Scientific Nunc), and serially diluted Gen 2A constructs were added and the plate was incubated at 4° C. overnight. The cells were washed with PBS with 1% BSA and then fixed with freshly prepared 4% formaldehyde (Thermo Scientific Pierce, #28906) diluted in PBS for 15 min at room temperature. The cells were washed with PBS containing 1% BSA, and then stained. […] Staining was carried out for 30 min at 4° C. After incubation with the detection reagent, cells were washed with PBS containing 1% BSA. The cells were finally resuspended in 200 μl PBS with 1% BSA and acquired using a BD FACSLyric flow cytometer system (BD Biosciences). Samples were analyzed using flowJo software (BD Biosciences).

[4] = biological target: T3, truncated hTfR1 of SEQ ID NO:86; assay: SPR (Biacore 8K), single-cycle kinetics on immobilised hTfR1 (SEQ ID NO:86), as in Example 12 [column VH first, row Human TfR1]
[5] = biological target: T1, truncated cTfR1 of SEQ ID NO:87; assay: SPR (Biacore 8K), single-cycle kinetics on immobilised cTfR1 (SEQ ID NO:87), as in Example 12 [column VH first, row Cynomolgus TfR1]
[6] = biological target: T1, truncated cTfR1 of SEQ ID NO:87; assay: SPR (Biacore 8K), single-cycle kinetics on immobilised cTfR1 (SEQ ID NO:87), as in Example 12 [column VL first, row Cynomolgus TfR1]
[7] = biological target: T4, human transferrin receptor 1 (hTfR1) on …; assay: flow cytometry on K562 cells (hTfR1 on the surface), Fc receptors blocked, overnight at 4 °C, detection with anti-human IgG-Alexa Fluor 488
Experimental: Fcγ receptors were blocked using Fc receptor blocker (Innovex biosciences, #NB309-4X-40) for 30 min at 4° C., after which the cells were washed in PBS. […] The plate was incubated at 4° C. overnight. […] Staining was carried out for 30 min at 4° C. […] The cells were finally resuspended in 200 μl PBS with 1% BSA and acquired using a BD FACSLyric flow cytometer system (BD Biosciences). Samples were analyzed using flowJo software (BD Biosciences).

Binder | Kd [2] | binding result [3] | also measured
B1 |  |  | EC50 (read off the curve) [1]: ~1 nM
B2 | 400 to 500 nM |  | 
B3 | ~40 nM |  | 
B4 | 100 to 200 nM |  | 
B5 |  | binds | 
B6 |  | binds | 
B7 |  | binds | 
B8 |  |  | binding result [4]: binds; binding result [5]: binds
B9 |  |  | binding result [6]: binds; EC50 (read off the curve) [7]: ~30 nM
B10 |  | binds | 
